These results are taken from article PMC4718643, “Characterization of a Mannose-6-Phosphate Isomerase from Bacillus amyloliquefaciens and Its Application in Fructose-6-Phosphate Production” (PLoS ONE, 2015).

As a reminder, the Km is the substrate concentration at which the rate is half of its maximum.

Substrate in this data set: O=P(O)(O)OC[C@H]1OC(O)[C@@H](O)[C@@H](O)[C@@H]1O
As to the kind of experiment: purified protein. The following applies: 0.5 mM Co2+ (general method), phosphate pH 7.5, 50 °C. It is filed as biochemical, Bacillus amyloliquefaciens.

B1: BsM6PI (Bacillus subtilis subsp. subtilis str. 168; K96Q) (protein)
chain: MTQSPIFLTPVFKEKIWGGTALRDRFGYSIPSESTGECWAISAHPKGPSTVANGPYKGKTLIELWEEHREVFGGVEGDRFPLLTKLLDVKEDTSIQVHPDDYYAGENEEGELGKTECWYIIDCKENAEIIYGHTARSKTELVTMINSGDWEGLLRRIKIKPGDFYYVPSGTLHALCKGALVLETQQNSDATYRVYDYDRLDSNGSPRELHFAKAVNAATVPHVDGYIDESTESRKGITIKTFVQGEYFSVYKWDINGEAEMAQDESFLICSVIEGSGLLKYEDKTCPLKKGDHFILPAQMPDFTIKGTCTLIVSHI
notes: full length, N-terminal His6 fusion (pET28a, BamHI/SalI), E. coli BL21(DE3), Ni-NTA; primers encode N-terminus MTQS and C-terminus IVSHI
As for B1, the Km came out at 12 mM.
